Measured values reported in the supplement of paper PMC10567573.

B1: TRIM15 (parent)
chain: LSQMGAQSSGKILLCPLCQEEEQA

Variants of: B1
Assay: protein stability index of a GFP-peptide fusion (GPS, HEK-293T) (PSI 1-6); higher = more stable
Settings: c terminus: a fixed tail appended
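Further: lentivirally expressed fusions sorted by FACS into six bins by GFP to DsRed ratio, PSI derived from sequencing read proportions per bin multiplied by bin number.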

Protein stability index, by site and new letter:
I12: K 4.04; S 4.57; L 4.04; E 3.56; Q 4.27; Y 3.61; N 3.09
E22: Y 2.02; W 2; G 3.12; P 2.56; M 2.56; I 2.63; N 4.15; L 3.38
P16: T 3.91; Y 2.97; K 4.19; V 3.29; N 4.1; M 3.98; R 3.39; D 4.05; H 3.8; C 2.59
K11: I 3.03; T 3; H 2.72; D 2.81; W 2.76; C 2.79; Q 3.9; P 3.6
A24: W 2.44; I 3.87; M 2.84; L 2.63; R 2.99; D 4.56; Y 3.55; G 3.51; N 3.88
L13: S 4.5; N 4.63; D 4.5; Y 4.25; Q 4.1; F 4.09; T 4.51; H 5.52; R 4.71
A6: H 4.33; S 4.02; C 3.37; I 3.93; F 2.6; K 4.68
M4: F 3.26; I 3.82; E 3.94; Y 3.76; A 4.66
Q19: C 2.52; N 3.57; S 3.23; Y 3.73; F 3.62; D 4.16; L 2.62
Q7: A 4.11; M 2.99; C 3.71; P 3.15; N 4.07
S8: C 2.89; N 3.82; Q 3.27; V 3.51; D 3.98
E20: C 2.44; A 3.49; R 3.77
G5: V 3.13; L 3.27; A 3.49; M 2.95; T 3.7; D 3.49; F 3.22; S 3.05
S2: P 4.26; D 5.08; R 3.7; M 3.58; T 3.71
Q23: A 2.89; C 3.58; G 3.47; T 3.33; V 3.11; N 3.67; I 3.2; E 4.53; Y 3.09; W 3.56
C15: T 5.05; N 5.22; W 4.47; M 4.64; D 5.58
E21: D 3.36; P 3.36; H 3.31; Y 2.82
G10: W 2.55; I 2.5; Y 2.83; R 3.22; K 3.71; H 3.71; V 3.19
L1: E 3.99; M 3.52; K 3.7; W 4.43; R 3.77; N 3.75; F 2.73; A 3.1; Q 4.4; P 3.44; V 3.97
Q3: R 3.23; W 2.23; P 4.9; E 3.68; K 4.1; F 2.9; D 3.97; N 3.55; V 2.81; I 3.11
C18: D 5.2; N 4.38; M 4.61; P 3.47; V 4.76; E 5.13; Y 4.27; A 5.26; K 4.27; I 3.49
S9: Y 3.9; R 2.99; M 2.57; P 3.49; F 2.36
L14: S 4.72; V 2.99; Q 4.52; D 4.72
L17: M 3.19; H 3.79; F 3.23; A 3.63; Q 4.19; Y 3.34
